Results published in patent publication US20190071480A1 (Biogen, published 2019).

Tests used:
[1] = biological target: T1, extracellular domain of activin receptor type IIB (ActRIIBecd), biotinylated (Homo sapiens (Human), UniProt Q13705 27-117, amino-biotinylated with amine-PEG3-Biotin); assay: BIAcore SPR as Example 5 (method not restated); SD ±3.33 nM
T1 construct: immobilised on a streptavidin-coated sensor chip; also called biotinylated ActRIIBecd; extracellular domain of ActRIIB
T1 sequence: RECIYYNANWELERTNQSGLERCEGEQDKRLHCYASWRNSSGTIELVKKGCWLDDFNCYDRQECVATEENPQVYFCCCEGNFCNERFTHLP
Protocol: (§1) Biosensor experiments. In one embodiment, experiments were performed on a BIAcore™ T100/T200 instrument (Pharmacia Biosensor AB) in the multichannel mode (serial flow path involving flow cells 1+2+3+4). Flow rate was 10 μl/min; temperature was 25° C.; and data were recorded at 2.5 points/s. All four segments of a sensor chip CMS were coated with streptavidin (Sigma) to a density of 2000 pg/mm² (2000 resonance units) by the aminocoupling procedure. ActRIIBecd (10 mg) and amine-PEG3-Biotin (10 mg, Pierce, Rockford, Ill.) were dissolved in 200 μl H₂O and 10 mg NaCNBH₃ was added to prepare biotinylated ActRIIBecd. The reaction mixture was heated at 70° C. for 24 h, after that a further 10 mg NaCNBH₃ was added and the reaction was heated at 70° C. for another 24 h. After cooling to room temperature, the mixture was desalted with the spin column (3,000 molecular weight cut off (MWCO)). […] Sensograms were recorded during flow of the analyte (the ActRIIBecd-associated polypeptides (i.e., domains) as previously described) first through flow cell 1 (control) then through flow cell 2 (biotinylated ActRIIBecd). […] The sensograms obtained at 1.11, 3.33, 10, 30, and 90 nM analyte were evaluated for equilibrium binding, association rate, and dissociation rate by using the programs supplied with the instrument (BIA evaluation 2.1; Software Handbook. 1995; Pharmacia Biosensor AB).

[2] = biological target: T1, extracellular domain of activin …; assay: Mean KD column of Table 5; method not restated (BIAcore as Example 5); species also listed in Table 4
Outline: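 Equilibrium binding plus on- and off-rates came from reference-subtracted sensograms of five analyte concentrations (1.11, 3.33, 10, 30, 90 nM). The receptor domain, amine-linked to biotin, sat on a streptavidin chip at a density of 50-250 RU. Flow was 10 μl/min at 25° C.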

[3] = biological target: T1, extracellular domain of activin …; assay: BIAcore SPR as Example 5 (method not restated); SD ±1.45 nM
Protocol: as §1

[4] = biological target: T1, extracellular domain of activin …; assay: BIAcore SPR as Example 5 (method not restated); SD ±1.92 nM
Protocol: as §1

[5] = biological target: T1, extracellular domain of activin …; assay: BIAcore SPR, biotinylated ActRIIBecd on chip; SD ±16.78 nM
Protocol: as §1

[6] = biological target: T1, extracellular domain of activin …; assay: BIAcore SPR as Example 5 (method not restated); SD ±1.18 nM
Protocol: as §1

[7] = biological target: T1, extracellular domain of activin …; assay: BIAcore SPR as Example 5 (method not restated); SD ±1.59 nM
Protocol: as §1

[8] = biological target: T1, extracellular domain of activin …; assay: BIAcore SPR as Example 5 (method not restated); SD ±1.94 nM
Protocol: as §1

[9] = biological target: T1, extracellular domain of activin …; assay: BIAcore SPR as Example 5 (method not restated); SD ±1.84 nM
Protocol: as §1

[10] = biological target: T1, extracellular domain of activin …; assay: BIAcore SPR as Example 5 (method not restated); SD ±2.36 nM
Protocol: as §1

[11] = biological target: T1, extracellular domain of activin …; assay: BIAcore SPR as Example 5 (method not restated); SD ±1.11 nM
Protocol: as §1

[12] = biological target: T1, extracellular domain of activin …; assay: BIAcore SPR as Example 5 (method not restated); SD ±1.17 nM
Protocol: as §1

[13] = biological target: T1, extracellular domain of activin …; assay: BIAcore SPR as Example 5 (method not restated); SD ±1.95 nM
Protocol: as §1

[14] = biological target: T1, extracellular domain of activin …; assay: BIAcore SPR as Example 5 (method not restated); SD ±2.63 nM
Protocol: as §1

[15] = biological target: T1, extracellular domain of activin …; assay: BIAcore SPR, biotinylated ActRIIBecd on chip; SD ±11.88 nM
Protocol: as §1

[16] = biological target: T1, extracellular domain of activin …; assay: BIAcore SPR, biotinylated ActRIIBecd on chip; SD ±13.69 nM
[17] = biological target: T1, extracellular domain of activin …; assay: BIAcore SPR, biotinylated ActRIIBecd on chip; SD ±18.52 nM
Protocol: as §1

[18] = biological target: T1, extracellular domain of activin …; assay: BIAcore SPR, biotinylated ActRIIBecd on chip; SD ±17.42 nM
Protocol: as §1

B1: SEQ ID NO: 348, cysteine pairs C29-C30^a (designed binder)
chain: GQAKRKGYKRLKSSCKRHPLYNSKIPKACCVPTELSAISMLYLDENEKVVLKNYQDMVVEGCGCRVDFSDVGWNDWIVAPPGYHAFYCHGECPFPLADHLNSTNHAIVQTLVNSV
modifications: disulfides C29-C30 (intra)
Kd [1]: 29.1 nM
Kd [2]: 29.1 nM

B2: SEQ ID NO: 348, cysteine pairs C15-C15^b, C29-C62^b, C30-C64^b, C88-C92^a (designed binder)
chain: GQAKRKGYKRLKSSCKRHPLYNSKIPKACCVPTELSAISMLYLDENEKVVLKNYQDMVVEGCGCRVDFSDVGWNDWIVAPPGYHAFYCHGECPFPLADHLNSTNHAIVQTLVNSV
modifications: disulfides C15-C15 (inter), C29-C62 (inter), C30-C64 (inter), C88-C92 (intra)
notes: homodimer by intermolecular disulfide
Kd [2]: 6.31 nM
Kd [3]: 6.31 nM

B3: SEQ ID NO: 348, cysteine pairs C15-C15^b, C29-C64^a, C30-C62^a, C88-C92^a (designed binder)
chain: GQAKRKGYKRLKSSCKRHPLYNSKIPKACCVPTELSAISMLYLDENEKVVLKNYQDMVVEGCGCRVDFSDVGWNDWIVAPPGYHAFYCHGECPFPLADHLNSTNHAIVQTLVNSV
modifications: disulfides C15-C15 (inter), C29-C64 (intra), C30-C62 (intra), C88-C92 (intra)
notes: as for B2
Kd [2]: 6.77 nM
Kd [4]: 6.77 nM

VDFSDVGWNDHAVAPPGYHAFYCHGECPFPLADHLNSTNHAIVQTLVNSV [Clone No. 18 domain (ActRIIBecd-associated polypeptide)]
Kd [5]: 64.1 nM

B4: SEQ ID NO: 316, cysteine pairs C67-C71^a, C8-C43^b, C9-C41^b, C109-C109^b (designed binder)
chain: NSKDPKACCVPTELSAPSPLYLDENEKPVLKNYQDMVVHGCGCRVDFKDVGWNDHAVAPPGYHAFYCHGECPFPLADHLNSDNHAIVQTKVNSVGQAKRKGYKRLKSSCKRHPLY
modifications: disulfides C67-C71 (intra), C8-C43 (inter), C9-C41 (inter), C109-C109 (inter)
notes: as for B2
Kd [6]: 5.78 nM
Kd [2]: 5.78 nM

B5: SEQ ID NO: 324, cysteine pairs C15-C15^b, C79-C114^a, C80-C112^a, C44-C48^a (designed binder)
chain: AQAKHKQRKRLKSSCKRHPLYVDFKDVGWNDHAVAPPGYHAFYCHGECPFPLADHLNSDNHAIVQTKVNSVNSKIPKACCVPTELSAISMLYLDENEKVVLKNYQDMVVEGCGCR
modifications: disulfides C15-C15 (inter), C79-C114 (intra), C80-C112 (intra), C44-C48 (intra)
notes: as for B2
Kd [7]: 8.42 nM
Kd [2]: 8.42 nM

B6: SEQ ID NO: 332, cysteine pairs C15-C15^b, C80-C114^b, C79-C112^b, C44-C48^a (designed binder)
chain: GQAKRKGYKRLKSSCKRHPLYVDFSDVGWNDWIVAPPGYHAFYCHGECPFPLADHLNSTNHAIVQTLVNSVNSKDPKACCVPTELSAPSPLYLDENEKPVLKNYQDMVVHGCGCR
modifications: disulfides C15-C15 (inter), C80-C114 (inter), C79-C112 (inter), C44-C48 (intra)
notes: as for B2
Kd [8]: 7.42 nM
Kd [2]: 7.42 nM

B7: SEQ ID NO: 332, cysteine pairs C15-C15^b, C80-C112^a, C79-C114^a, C44-C48^a (designed binder)
chain: GQAKRKGYKRLKSSCKRHPLYVDFSDVGWNDWIVAPPGYHAFYCHGECPFPLADHLNSTNHAIVQTLVNSVNSKDPKACCVPTELSAPSPLYLDENEKPVLKNYQDMVVHGCGCR
modifications: disulfides C15-C15 (inter), C80-C112 (intra), C79-C114 (intra), C44-C48 (intra)
notes: as for B2
Kd [9]: 7.18 nM
Kd [2]: 7.18 nM

B8: SEQ ID NO: 332, cysteine pairs C79-C80^a (designed binder)
chain: GQAKRKGYKRLKSSCKRHPLYVDFSDVGWNDWIVAPPGYHAFYCHGECPFPLADHLNSTNHAIVQTLVNSVNSKDPKACCVPTELSAPSPLYLDENEKPVLKNYQDMVVHGCGCR
modifications: disulfides C79-C80 (intra)
Kd [2]: 28.5 nM
Kd [10]: 28.5 nM

B9: SEQ ID NO: 332, cysteine pairs C15-C15^b, C80-C114^a, C79-C112^a, C44-C48^a (designed binder)
chain: GQAKRKGYKRLKSSCKRHPLYVDFSDVGWNDWIVAPPGYHAFYCHGECPFPLADHLNSTNHAIVQTLVNSVNSKDPKACCVPTELSAPSPLYLDENEKPVLKNYQDMVVHGCGCR
modifications: disulfides C15-C15 (inter), C80-C114 (intra), C79-C112 (intra), C44-C48 (intra)
notes: as for B2
Kd [2]: 5.98 nM
Kd [11]: 5.98 nM

B10: SEQ ID NO: 340, cysteine pairs C15-C15^b, C29-C62^a, C30-C64^a, C88-C92^a (designed binder)
chain: AQAKHKQRKRLKSSCKRHPLYNSKDPKACCVPTELSAPSPLYLDENEKPVLKNYQDMVVHGCGCRVDFKDVGWNDHAVAPPGYHAFYCHGECPFPLADHLNSDNHAIVQTKVNSV
modifications: disulfides C15-C15 (inter), C29-C62 (intra), C30-C64 (intra), C88-C92 (intra)
notes: as for B2
Kd [2]: 5.77 nM
Kd [12]: 5.77 nM

B11: SEQ ID NO: 340, cysteine pairs C15-C15^b, C29-C64^a, C30-C62^a, C88-C92^a (designed binder)
chain: AQAKHKQRKRLKSSCKRHPLYNSKDPKACCVPTELSAPSPLYLDENEKPVLKNYQDMVVHGCGCRVDFKDVGWNDHAVAPPGYHAFYCHGECPFPLADHLNSDNHAIVQTKVNSV
modifications: disulfides C15-C15 (inter), C29-C64 (intra), C30-C62 (intra), C88-C92 (intra)
notes: as for B2
Kd [2]: 7.19 nM
Kd [13]: 7.19 nM

B12: SEQ ID NO: 340, cysteine pairs C15-C29^a (designed binder)
chain: AQAKHKQRKRLKSSCKRHPLYNSKDPKACCVPTELSAPSPLYLDENEKPVLKNYQDMVVHGCGCRVDFKDVGWNDHAVAPPGYHAFYCHGECPFPLADHLNSDNHAIVQTKVNSV
modifications: disulfides C15-C29 (intra)
Kd [2]: 30.1 nM
Kd [14]: 30.1 nM

NSKIPKACCVPTELSAISMLYLDENEKVVLKNYQDMVVEGCGCR [Clone No. 21 domain (ActRIIBecd-associated polypeptide)]
Kd [15]: 37.1 nM

NSKDPKACCVPTELSAPSPLYLDENEKPVLKNYQDMVVHGCGCR [Clone No. 19 domain (ActRIIBecd-associated polypeptide)]
Kd [16]: 40.1 nM

NSKIPKACCVPTELSAISPLYLDENEKVVLKNYQDMVVHGCGCR [Clone No. 22 domain (ActRIIBecd-associated polypeptide)]
Kd [17]: 51.7 nM

NSKIPKACCVPTELSAISMLYLDENEKPVLKNYQDMVVEGCGCR [Clone No. 23 domain (ActRIIBecd-associated polypeptide)]
Kd [18]: 64.4 nM
